DPP4: the “fluorescence read of probe cleavage, recombinant protease assay” value (“fluorescence read of probe cleavage” below) with Probe #411 was “Probe #411 sensed DPP4 (FIG. 55B)”; with Probe #387 it was “Probe #387 sensed DPP4 (FIG. 55G)”; in the data set on Probe #554, “Probe #554 sensed MMP1, MMP2, MMP13, MMP14, and DPP4 (FIG. 55F)”; in the data set with Probe #349, “Probe #349 sensed MMP2 and DPP4 (FIG. 55A)”.
On to MMP1, for which the “fluorescence read of probe cleavage” value in the data set with Probe #417 was “Probe #417 sensed MMP1, MMP2, MMP8, MMP13, and MMP14 (FIG. 55C)”; with Probe #554 it was “Probe #554 sensed MMP1, MMP2, MMP13, MMP14, and DPP4 (FIG. 55F)”.
Take MMP2: the “fluorescence read of probe cleavage” value with Probe #117 was “Probe #117 sensed MMP2 and MMP20 (FIG. 55D)”; in the data set on Probe #417 it was “Probe #417 sensed MMP1, MMP2, MMP8, MMP13, and MMP14 (FIG. 55C)”; with Probe #554, “Probe #554 sensed MMP1, MMP2, MMP13, MMP14, and DPP4 (FIG. 55F)”; with Probe #349, “Probe #349 sensed MMP2 and DPP4 (FIG. 55A)”.
As for MMP8, the “fluorescence read of probe cleavage” value with Probe #417 was “Probe #417 sensed MMP1, MMP2, MMP8, MMP13, and MMP14 (FIG. 55C)”.
As to MMP13, the “fluorescence read of probe cleavage” value in the data set with Probe #263 was “Probe #263 sensed MMP13 (FIG. 55E)”; in the data set with Probe #417 it was “Probe #417 sensed MMP1, MMP2, MMP8, MMP13, and MMP14 (FIG. 55C)”; in the data set with Probe #554, “Probe #554 sensed MMP1, MMP2, MMP13, MMP14, and DPP4 (FIG. 55F)”.
As to MMP14, the “fluorescence read of probe cleavage” value in the data set with Probe #417 is “Probe #417 sensed MMP1, MMP2, MMP8, MMP13, and MMP14 (FIG. 55C)”; in the data set on Probe #554, “Probe #554 sensed MMP1, MMP2, MMP13, MMP14, and DPP4 (FIG. 55F)”.
As to MMP20, in the data set with Probe #117, the “fluorescence read of probe cleavage” value is “Probe #117 sensed MMP2 and MMP20 (FIG. 55D)”.

These data come from US20250110130.

MMP2, sequence (P08253 110-660): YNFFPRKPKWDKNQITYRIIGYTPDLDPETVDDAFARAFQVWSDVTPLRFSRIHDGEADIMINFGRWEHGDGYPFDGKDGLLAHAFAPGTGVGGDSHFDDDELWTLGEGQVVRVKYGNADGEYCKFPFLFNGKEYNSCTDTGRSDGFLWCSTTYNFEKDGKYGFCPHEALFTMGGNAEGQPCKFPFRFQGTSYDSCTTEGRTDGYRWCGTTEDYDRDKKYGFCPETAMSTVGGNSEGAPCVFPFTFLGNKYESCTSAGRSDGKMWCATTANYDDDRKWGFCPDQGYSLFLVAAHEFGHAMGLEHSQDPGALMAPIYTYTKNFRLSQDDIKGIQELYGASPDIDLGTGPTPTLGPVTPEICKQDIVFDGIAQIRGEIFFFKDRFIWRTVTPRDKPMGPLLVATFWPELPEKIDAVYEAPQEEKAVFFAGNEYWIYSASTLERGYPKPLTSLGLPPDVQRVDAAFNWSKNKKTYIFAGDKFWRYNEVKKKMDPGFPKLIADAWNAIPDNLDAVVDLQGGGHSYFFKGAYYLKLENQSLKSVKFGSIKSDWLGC
MMP1, sequence (P03956 100-469): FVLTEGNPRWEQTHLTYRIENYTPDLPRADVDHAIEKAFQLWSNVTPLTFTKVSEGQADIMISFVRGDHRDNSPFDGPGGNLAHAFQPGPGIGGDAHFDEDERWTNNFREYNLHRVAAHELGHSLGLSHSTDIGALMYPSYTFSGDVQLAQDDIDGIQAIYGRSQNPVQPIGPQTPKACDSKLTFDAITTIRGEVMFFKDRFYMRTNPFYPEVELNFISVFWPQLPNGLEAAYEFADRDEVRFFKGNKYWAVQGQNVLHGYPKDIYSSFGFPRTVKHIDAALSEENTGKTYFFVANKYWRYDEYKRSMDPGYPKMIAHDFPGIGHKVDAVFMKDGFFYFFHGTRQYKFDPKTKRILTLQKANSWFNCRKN
MMP20, sequence (O60882 108-483): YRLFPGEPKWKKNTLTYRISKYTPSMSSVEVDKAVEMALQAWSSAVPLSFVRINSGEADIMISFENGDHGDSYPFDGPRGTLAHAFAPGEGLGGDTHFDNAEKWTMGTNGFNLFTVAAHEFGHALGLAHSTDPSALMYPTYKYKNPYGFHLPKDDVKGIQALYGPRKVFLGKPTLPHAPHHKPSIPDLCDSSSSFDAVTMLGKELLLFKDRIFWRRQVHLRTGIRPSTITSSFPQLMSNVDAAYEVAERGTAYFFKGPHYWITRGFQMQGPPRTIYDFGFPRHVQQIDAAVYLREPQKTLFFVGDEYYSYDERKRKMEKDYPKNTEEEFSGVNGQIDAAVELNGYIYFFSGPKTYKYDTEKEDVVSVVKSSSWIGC
